Test [1] addresses 红细胞胞膜抗原 (Erythrocyte membrane antigen) on human fresh red blood cells (human). Kind of test: ELISA on formaldehyde-fixed human red blood cells; antibody at 25 ng/ml. In general terms: In an ELISA, binding on a coated surface is turned into a signal by an enzyme label.
Test [2] shares this target. Kind of test: ELISA on formaldehyde-fixed human red blood cells; antibody at 50 ng/ml.
Test [3] has the same target. Kind of test: ELISA on formaldehyde-fixed human red blood cells; antibody at 12.5 ng/ml.
Test [4] has the same target. The test can be described thus: ELISA on formaldehyde-fixed human red blood cells; antibody at 6.25 ng/ml.
The target is the same in test [5]. The test can be described thus: ELISA on formaldehyde-fixed human red blood cells; antibody at 3.125 ng/ml.
Test [6] has the same target. Kind of test: ELISA on formaldehyde-fixed human red blood cells; antibody at 0 ng/ml (blank).
The target is the same in test [7]. Kind of test: ELISA on red blood cells; Anti-EM-8F9mut1 stored 21 days at 4 C; antibody at 12.5 ng/ml.
Test [8] shares this target. Kind of test: ELISA on red blood cells; Anti-EM-8F9mut1 stored 21 days at 37 C; antibody at 12.5 ng/ml.
Test [9] shares this target. Kind of test: ELISA on red blood cells; Anti-EM-8F9mut1 stored 21 days at -80 C; antibody at 12.5 ng/ml.
Test [10] has the same target. Kind of test: ELISA on red blood cells; Anti-EM-8F9mut1 stored 21 days at 4 C; antibody at 1.5625 ng/ml.
Test [11] has the same target. Kind of test: ELISA on red blood cells; Anti-EM-8F9mut1 stored 21 days at 37 C; antibody at 1.5625 ng/ml.
The target is the same in test [12]. Kind of test: ELISA on red blood cells; Anti-EM-8F9mut1 stored 21 days at -80 C; antibody at 1.5625 ng/ml.
Test [13] shares this target. Kind of test: ELISA on red blood cells; Anti-EM-8F9mut1 stored 21 days at 4 C; antibody at 0 ng/ml (blank).
The target is the same in test [14]. Kind of test: ELISA on red blood cells; Anti-EM-8F9mut1 stored 21 days at 37 C; antibody at 0 ng/ml (blank).
Test [15] has the same target. The test can be described thus: ELISA on red blood cells; Anti-EM-8F9mut1 stored 21 days at -80 C; antibody at 0 ng/ml (blank).

With 对照抗体 (antibody), the OD450 (ref 630 nm) amounted to 1.3 OD in [1]; 1.89 OD in test [2]; 0.696 OD in test [3]; 0.408 OD in test [4]; 0.196 OD in test [5]; 0.041 OD in test [6].

B1: Anti-EM-8F9mut1单克隆抗体 (antibody, mouse IgG2a, kappa, V domains shown)
VH: QVPLQQPGAALVKPGASVKLSCQASDYTFTNYNMHWVKQTPGQGLEWIGTIYAGDGDPSYNQKFKGQATLTADKSSSTAYMQLLSLTSEDSAVYYCARGGTRAMDYWGHGTSVTVSS
VL: DVLLTQIPLSLPVSLGDQASLSCRSSQTLVHSDGNTYLAWYLQKPGQSPKLLIYKVSRRFSGVPDRFSGSGSGTDFTLKISRVEAEDLGVYYCFQGSHVPFTFGSGTKLEVKR
Regarding B1, the OD450 (ref 630 nm) amounted to 2.42 OD in [1]; 2.36 OD in [2]; 2.33 OD in test [3]; 2 OD in test [4]; 1.28 OD in test [5]; 0.063 OD in test [6]. Also, the OD450 (ref 630 nm) is 2.12 OD in test [7]; 2.13 OD in test [8]; 2.15 OD in [9]; 0.691 OD in test [10]; 0.666 OD in [11]; 0.647 OD in [12]. For the same molecule, the OD450 (ref 630 nm) in [13] amounted to 0.047 OD; in [14] it was 0.057 OD; in [15] it was 0.051 OD.

(Values after patent CN116535505A.)
